Data published in paper doi:10.1101/2022.08.07.503104, “A tripartite complex HIV-1 Tat-cyclophilin A-capsid protein enables Tat encapsidation that is required for HIV-1 infectivity” (bioRxiv, 2022).

How the values were obtained:
Recombinant human CypA [1] = biological target: T1, Recombinant human CypA (human, UniProt P62937 1-165, Monolith RED-NHS 2nd generation fluorescent label, in the MST experiments only); assay: MST; fluorescently labeled CypA at 50 nM, partner titrated; where indicated CypA first mixed with 20 µM CA or 1 µM Tat; 20°C, 150 mM NaCl, 50 mM citrate, pH 7.3, 0.05% Tween; settings: both partners purified
T1 construct: extra N-terminal gly residue left after TEV cleavage; cyclophilin A (CypA), human; Unlabeled in SEC and SPR, labeled in MST; also called cyclophilin A; labeled CypA; source: E. coli BL21 λDE3, purified (Ni-NTA, TEV cleavage, second Ni-NTA); not shown: His6, N-terminal, cleaved
T1 sequence (P62937 other isoform, or with tags, fused parts or gaps): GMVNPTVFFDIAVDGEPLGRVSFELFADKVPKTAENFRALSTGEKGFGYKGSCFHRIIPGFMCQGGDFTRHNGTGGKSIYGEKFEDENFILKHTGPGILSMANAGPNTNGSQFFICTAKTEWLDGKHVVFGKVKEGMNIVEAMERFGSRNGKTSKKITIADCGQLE

Recombinant human CypA [2] = biological target: T1, Recombinant human CypA; assay: SPR; Tat immobilised on a CM5S chip by amine coupling (~11000 RU); CypA or equimolecular CypA/CA mix at 370-6000 nM, one cycle kinetic titration, or CA at 2 µM; 25°C, 20 mM phosphate, 30 mM citrate, pH 7, 150 mM NaCl, 0.05% P20; two state fitting model; settings: both partners purified

B1: Recombinant Tat (86 residues, BH10 isolate) (natural protein)
chain: MEPVDPRLEPWKHPGSQPKTACTNCYCKKCCFHCQVCFITKALGISYGRKKRRQRRRPPQGSQTHQVSLSKQPTSQSRGDPTGPKE
notes: HIV-1 Tat, BH10 isolate, 86 residues; source: E. coli, purified (as Vendeville et al., 2004); lyophilized
Recombinant human CypA [1]
  Kd: 0.243 ± 0.023 µM
Recombinant human CypA [2]
  Kd: 0.255 ± 0.01 µM
